Reference: patent US20260167699A1 (Chugai, published 2026)
Residue numbers refer to the chain shown, from its start.

T1: FcγRIIa(R) extracellular domain, C-terminal His tag (human, UniProt P12318 34-217)
T1 construct: extracellular domain; also called 2aR
T1 sequence: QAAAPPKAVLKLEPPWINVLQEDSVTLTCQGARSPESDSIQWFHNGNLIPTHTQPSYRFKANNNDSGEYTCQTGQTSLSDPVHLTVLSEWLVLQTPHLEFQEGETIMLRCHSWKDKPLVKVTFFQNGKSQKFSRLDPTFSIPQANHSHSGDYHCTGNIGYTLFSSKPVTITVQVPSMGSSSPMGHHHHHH

T2: FcγRIIa(H) extracellular domain, C-terminal His tag (human, UniProt P12318 34-217)
T2 construct: extracellular domain; also called 2aH
T2 sequence: T1 sequence with R134H

T3: FcγRIIb extracellular domain, C-terminal His tag (human, UniProt P31994 43-217)
T3 construct: extracellular domain; also called 2b
T3 sequence: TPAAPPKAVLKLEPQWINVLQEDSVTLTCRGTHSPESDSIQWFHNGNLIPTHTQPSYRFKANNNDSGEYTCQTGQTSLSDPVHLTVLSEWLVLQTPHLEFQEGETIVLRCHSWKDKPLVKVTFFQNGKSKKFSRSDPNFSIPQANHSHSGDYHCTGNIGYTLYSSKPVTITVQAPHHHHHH

B1: GpH7-A5/GpH7-B3 variant S298_19Q/GpL16-k0 (antibody, human IgG1, kappa)
heavy 1: not shown
heavy 2: not shown
light: DIVMTQSPLSLPVTPGEPASISCQASESLVHSNRNTYLHWYLQKPGQSPQLLIYKVSNRFSGVPDRFSGSGSGTDFTLKISRVEAEDVGVYYCSQNTHVPPTFGQGTKVEIERTVAAPSVFIFPPSDEQLKSGTASVVCLLNNFYPREAKVQWKVDNALQSGNSQESVTEQDSKDSTYSLSSTLTLSKADYEKHKVYACEVTHQGLSSPVTKSFNRGEC
notes: heterodimerized IgG1, one H chain mutated; also called He Ab; copies: 1 + 1 + 2
B2: GpH7-A5/GpH7-B3 variant S324_09D/GpL16-k0 (antibody, human IgG1, kappa)
heavy 1: not shown
heavy 2: not shown
light: B1 light
notes: as for B1
B3: GpH7-A5/GpH7-B3 variant S324_19Q/GpL16-k0 (antibody, human IgG1, kappa)
heavy 1: not shown
heavy 2: not shown
light: B1 light
notes: as for B1
B4: GpH7-A5/GpH7-B3 variant Y296_07I/GpL16-k0 (antibody, human IgG1, kappa)
heavy 1: not shown
heavy 2: not shown
light: B1 light
notes: as for B1
B5: GpH7-A5/GpH7-B3 variant S324_03V/GpL16-k0 (antibody, human IgG1, kappa)
heavy 1: not shown
heavy 2: not shown
light: B1 light
notes: as for B1
B6: GpH7-A5/GpH7-B3 variant Y296_02A/GpL16-k0 (antibody, human IgG1, kappa)
heavy 1: not shown
heavy 2: not shown
light: B1 light
notes: as for B1
B7: GpH7-A5/GpH7-B3 variant S324_14T/GpL16-k0 (antibody, human IgG1, kappa)
heavy 1: not shown
heavy 2: not shown
light: B1 light
notes: as for B1
B8: GpH7-A5/GpH7-B3 variant Y296_06M/GpL16-k0 (antibody, human IgG1, kappa)
heavy 1: not shown
heavy 2: not shown
light: B1 light
notes: as for B1
B9: GpH7-A5/GpH7-B3 variant Y296_09D/GpL16-k0 (antibody, human IgG1, kappa)
heavy 1: not shown
heavy 2: not shown
light: B1 light
notes: as for B1
B10: GpH7-A5/GpH7-B3 variant S324_10E/GpL16-k0 (antibody, human IgG1, kappa)
heavy 1: not shown
heavy 2: not shown
light: B1 light
notes: as for B1
B11: GpH7-A5/GpH7-B3 variant Y296_01G/GpL16-k0 (antibody, human IgG1, kappa)
heavy 1: not shown
heavy 2: not shown
light: B1 light
notes: as for B1
B12: GpH7-A5/GpH7-B3 variant S324_11K/GpL16-k0 (antibody, human IgG1, kappa)
heavy 1: not shown
heavy 2: not shown
light: B1 light
notes: as for B1
B13: GpH7-A5/GpH7-B3 variant Y296_03V/GpL16-k0 (antibody, human IgG1, kappa)
heavy 1: not shown
heavy 2: not shown
light: B1 light
notes: as for B1
B14: GpH7-A5/GpH7-B3 variant S324_15Y/GpL16-k0 (antibody, human IgG1, kappa)
heavy 1: not shown
heavy 2: not shown
light: B1 light
notes: as for B1
B15: GpH7-A5/GpH7-B3 variant S324_18N/GpL16-k0 (antibody, human IgG1, kappa)
heavy 1: not shown
heavy 2: not shown
light: B1 light
notes: as for B1
B16: GpH7-A5/GpH7-B3 variant S324_08L/GpL16-k0 (antibody, human IgG1, kappa)
heavy 1: not shown
heavy 2: not shown
light: B1 light
notes: as for B1
B17: GpH7-A5/GpH7-B3 variant Y296_04F/GpL16-k0 (antibody, human IgG1, kappa)
heavy 1: not shown
heavy 2: not shown
light: B1 light
notes: as for B1
B18: GpH7-A5/GpH7-B3 variant S324_12R/GpL16-k0 (antibody, human IgG1, kappa)
heavy 1: not shown
heavy 2: not shown
light: B1 light
notes: as for B1
B19: GpH7-A5/GpH7-B3 variant Y296_08L/GpL16-k0 (antibody, human IgG1, kappa)
heavy 1: not shown
heavy 2: not shown
light: B1 light
notes: as for B1
B20: GpH7-A5/GpH7-B3 variant S324_04F/GpL16-k0 (antibody, human IgG1, kappa)
heavy 1: not shown
heavy 2: not shown
light: B1 light
notes: as for B1
B21: GpH7-A5/GpH7-B3 variant S324_07I/GpL16-k0 (antibody, human IgG1, kappa)
heavy 1: not shown
heavy 2: not shown
light: B1 light
notes: as for B1

target: T4, FcγRIa extracellular domain, C-terminal His tag (human, UniProt P12314 16-292); test: SPR; He Ab vs HeCon Ab (GpH7-A5/GpH7-B3/GpL16-k0)=100;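 further: surface plasmon resonance at 25 °C with the test antibody captured on a sensor chip via antigenic peptide, protein L or protein A/G and FcγR flowed over as analyte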
T4 construct: extracellular domain; also called 1a
T4 sequence (P12314 other isoform, or with tags, fused parts or gaps): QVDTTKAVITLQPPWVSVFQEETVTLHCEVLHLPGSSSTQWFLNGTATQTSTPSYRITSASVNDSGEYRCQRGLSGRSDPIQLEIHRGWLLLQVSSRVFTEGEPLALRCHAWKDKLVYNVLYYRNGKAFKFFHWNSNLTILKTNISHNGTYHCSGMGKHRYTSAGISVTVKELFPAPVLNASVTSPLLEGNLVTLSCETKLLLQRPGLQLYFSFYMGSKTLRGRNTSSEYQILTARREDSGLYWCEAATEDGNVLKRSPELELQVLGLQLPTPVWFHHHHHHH

| He/Con 1a [%] | Binder |
| --- | --- |
| 106 | B1 |
| 97.7 | B2 |
| 106 | B3 |
| 101 | B4 |
| 97.7 | B5 |
| 99.8 | B6 |
| 114 | B7 |
| 101 | B8 |
| 103 | B9 |
| 98.9 | B10 |
| 99.4 | B11 |
| 96.3 | B12 |
| 101 | B13 |
| 107 | B14 |
| 109 | B15 |
| 97.3 | B16 |
| 101 | B17 |
| 95.9 | B18 |
| 101 | B19 |
| 103 | B20 |
| 96.2 | B21 |

target: T1, FcγRIIa(R) extracellular domain, …; test: as above

| He/Con 2aR [%] | Binder |
| --- | --- |
| 90.9 | B1 |
| 102 | B2 |
| 86.8 | B3 |
| 96.7 | B4 |
| 113 | B5 |
| 93 | B6 |
| 93.9 | B7 |
| 96.8 | B8 |
| 101 | B9 |
| 99 | B10 |
| 91.6 | B11 |
| 91 | B12 |
| 92 | B13 |
| 107 | B14 |
| 101 | B15 |
| 110 | B16 |
| 105 | B17 |
| 84 | B18 |
| 93.7 | B19 |
| 99.6 | B20 |
| 109 | B21 |

target: T2, FcγRIIa(H) extracellular domain, …; test: as above

| He/Con 2aH [%] | Binder |
| --- | --- |
| 88.9 | B1 |
| 117 | B2 |
| 106 | B3 |
| 92.7 | B4 |
| 108 | B5 |
| 89.1 | B6 |
| 107 | B7 |
| 94.2 | B8 |
| 102 | B9 |
| 114 | B10 |
| 91.6 | B11 |
| 102 | B12 |
| 86.9 | B13 |
| 114 | B14 |
| 109 | B15 |
| 106 | B16 |
| 97.8 | B17 |
| 107 | B18 |
| 86.9 | B19 |
| 106 | B20 |
| 107 | B21 |

target: T3, FcγRIIb extracellular domain, …; test: as above

| He/Con 2b [%] | Binder |
| --- | --- |
| 74.3 | B1 |
| 112 | B2 |
| 87.2 | B3 |
| 85.5 | B4 |
| 128 | B5 |
| 83.1 | B6 |
| 115 | B7 |
| 89 | B8 |
| 100 | B9 |
| 101 | B10 |
| 80.4 | B11 |
| 89.6 | B12 |
| 80.4 | B13 |
| 115 | B14 |
| 106 | B15 |
| 117 | B16 |
| 101 | B17 |
| 82.4 | B18 |
| 83.5 | B19 |
| 99.9 | B20 |
| 125 | B21 |

target: T5, FcγRIIIa extracellular domain, C-terminal His tag (human, UniProt P08637 17-208); test: as above
T5 construct: extracellular domain; also called 3a
T5 sequence (P08637 other isoform, or with tags, fused parts or gaps): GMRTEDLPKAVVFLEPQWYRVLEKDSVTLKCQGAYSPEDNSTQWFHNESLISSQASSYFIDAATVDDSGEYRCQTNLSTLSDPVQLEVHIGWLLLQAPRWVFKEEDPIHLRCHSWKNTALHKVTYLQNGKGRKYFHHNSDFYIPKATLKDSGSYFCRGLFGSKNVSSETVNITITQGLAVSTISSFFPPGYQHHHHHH

| He/Con 3a [%] | Binder |
| --- | --- |
| 70.6 | B1 |
| 110 | B2 |
| 96.2 | B3 |
| 75.8 | B4 |
| 101 | B5 |
| 66.3 | B6 |
| 112 | B7 |
| 74.6 | B8 |
| 89 | B9 |
| 108 | B10 |
| 51.3 | B11 |
| 90.2 | B12 |
| 69.1 | B13 |
| 110 | B14 |
| 103 | B15 |
| 95.5 | B16 |
| 79.5 | B17 |
| 98.1 | B18 |
| 72.4 | B19 |
| 99.3 | B20 |
| 101 | B21 |
